# Results published in patent publication US20200247855A1 (published 2020).
# Numbering of substitutions follows the chain as printed. Where two headings read alike, the source gives them in different places.
# B1: P1156_IXORI (other)
# chain: ADDDNELFTVQYCGMNCTKDEGGTWTGCTGKKEGCKCYHESGKNYGLCLSTEYTDFSQYGNPSDSEIEAAKPKRSDTLSH
# B2: P1156 (other)
# chain: B1 chain
# B3: P991_AMBCA (other)
# chain: ENGEGTTQPDYDNSTDYYNYEDFKCTCPAPHLNNTNGTVMKPIGCYYTCNVTRCTAPDTYPCYNLTEHQAKNLTTSPTTLCAVGNCDHGICVPNGTKELCFKAPNLEE
# Key:
# CXCL3_HUMAN [1] = target: T1, CXCL3_HUMAN (human, UniProt P19876 35-107); assay: BLI; previously obtained data
# T1 sequence (P19876 35-107): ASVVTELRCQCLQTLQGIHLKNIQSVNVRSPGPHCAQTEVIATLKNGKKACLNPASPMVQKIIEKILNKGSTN
# CXCL3_HUMAN [2] = target: T1, CXCL3_HUMAN; assay: BLI
# CXCL8_HUMAN [3] = target: T2, CXCL8_HUMAN (human, UniProt P10145 28-99); assay: BLI
# T2 sequence (P10145 28-99): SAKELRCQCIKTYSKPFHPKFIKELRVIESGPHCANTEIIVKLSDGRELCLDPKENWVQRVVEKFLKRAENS
# CXCL1_HUMAN [4] = target: T3, CXCL1_HUMAN (human, UniProt P09341 35-107); assay: BLI
# T3 sequence (P09341 35-107): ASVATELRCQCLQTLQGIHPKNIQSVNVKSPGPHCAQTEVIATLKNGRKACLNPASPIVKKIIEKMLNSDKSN
# CXCL5 [5] = assay: BLI
# CXCL6 [6] = assay: BLI
# CXCL2 [7] = assay: BLI
# CXCL6_HUMAN = assay: BLI
# CXCL5_HUMAN = assay: BLI
# CXCL2_HUMAN = assay: BLI
# CXCL8_HUMAN [8] = target: T2, CXCL8_HUMAN; assay: BLI; remark: listed apart in the source
# CXCL1_HUMAN [9] = target: T3, CXCL1_HUMAN; assay: BLI; remark: listed apart in the source
# CXCL5 [10] = assay: BLI; remark: listed apart in the source
# CXCL2 [11] = assay: BLI; remark: listed apart in the source
# CXCL6 [12] = assay: BLI; previously obtained data
# CCL8_HUMAN = target: T4, CCL8_HUMAN (human, UniProt P80075 24-99); assay: BLI
# T4 chain: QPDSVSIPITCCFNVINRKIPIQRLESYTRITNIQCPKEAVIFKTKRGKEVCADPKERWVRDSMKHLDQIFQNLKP
# CCL24_HUMAN = target: T5, CCL24_HUMAN (human, UniProt O00175 27-104); assay: BLI
# T5 chain: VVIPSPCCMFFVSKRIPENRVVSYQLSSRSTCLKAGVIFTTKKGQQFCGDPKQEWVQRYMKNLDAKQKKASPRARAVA
# CCL3L1_HUMAN = target: T6, CCL3L1_HUMAN (human, UniProt P16619 24-93); assay: BLI
# T6 chain: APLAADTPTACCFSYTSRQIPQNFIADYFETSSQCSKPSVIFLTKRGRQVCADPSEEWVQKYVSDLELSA
# CCL7_HUMAN = CCL7_HUMAN (human, UniProt P80098 24-99); assay: BLI
# Chain of CCL7_HUMAN (P80098 24-99): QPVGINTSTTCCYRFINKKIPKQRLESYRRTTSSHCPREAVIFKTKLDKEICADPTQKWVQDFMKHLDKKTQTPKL
# CCL14_HUMAN = target: T7, CCL14_HUMAN (human, UniProt Q16627 22-93); assay: BLI
# T7 chain: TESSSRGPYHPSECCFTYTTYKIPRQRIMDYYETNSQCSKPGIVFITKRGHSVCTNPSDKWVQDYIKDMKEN
# CCL19_HUMAN = target: T8, CCL19_HUMAN (human, UniProt Q99731 22-98); assay: BLI
# T8 chain: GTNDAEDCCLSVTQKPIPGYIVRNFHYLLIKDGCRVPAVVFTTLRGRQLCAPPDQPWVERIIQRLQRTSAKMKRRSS
# CCL21_HUMAN = target: T9, CCL21_HUMAN (human, UniProt O00585 24-134); assay: BLI
# T9 chain: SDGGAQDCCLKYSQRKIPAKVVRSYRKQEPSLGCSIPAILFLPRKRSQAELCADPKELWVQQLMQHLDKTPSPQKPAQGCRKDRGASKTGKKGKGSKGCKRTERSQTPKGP
# CCL16_HUMAN = target: T10, CCL16_HUMAN (human, UniProt O15467 24-120); assay: BLI
# T10 chain: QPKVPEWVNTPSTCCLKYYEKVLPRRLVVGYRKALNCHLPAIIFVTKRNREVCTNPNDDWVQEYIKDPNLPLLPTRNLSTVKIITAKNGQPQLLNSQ
# CCL23_HUMAN = target: T11, CCL23_HUMAN (human, UniProt P55773 22-120); assay: BLI
# T11 chain: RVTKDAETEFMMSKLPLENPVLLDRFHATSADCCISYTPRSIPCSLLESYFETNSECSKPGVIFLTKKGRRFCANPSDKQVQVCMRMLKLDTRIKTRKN
# CCL5_HUMAN = target: T12, CCL5_HUMAN (human, UniProt P13501 24-91); assay: BLI
# T12 chain: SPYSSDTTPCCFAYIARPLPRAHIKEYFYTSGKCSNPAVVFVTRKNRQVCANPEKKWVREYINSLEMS
# CCL4L1_HUMAN = target: T13, CCL4L1_HUMAN (human, UniProt Q8NHW4 24-92); assay: BLI
# T13 chain: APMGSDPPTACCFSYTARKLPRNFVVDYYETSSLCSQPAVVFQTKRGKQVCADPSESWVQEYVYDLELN
# CCL22_HUMAN = target: T14, CCL22_HUMAN (human, UniProt O00626 25-93); assay: BLI
# T14 chain: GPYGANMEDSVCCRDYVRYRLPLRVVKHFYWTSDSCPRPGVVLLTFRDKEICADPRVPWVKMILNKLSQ
# CCL15_HUMAN = target: T15, CCL15_HUMAN (human, UniProt Q16663 22-113); assay: BLI
# T15 chain: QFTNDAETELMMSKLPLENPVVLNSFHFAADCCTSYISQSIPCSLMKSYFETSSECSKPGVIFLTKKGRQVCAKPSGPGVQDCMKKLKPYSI
# CCL20_HUMAN = CCL20_HUMAN (human, UniProt P78556 27-96); assay: BLI
# Chain of CCL20_HUMAN (P78556 27-96): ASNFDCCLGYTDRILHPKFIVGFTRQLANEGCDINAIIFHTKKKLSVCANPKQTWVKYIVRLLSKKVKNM
# CCL17_HUMAN = target: T16, CCL17_HUMAN (human, UniProt Q92583 24-94); assay: BLI
# T16 chain: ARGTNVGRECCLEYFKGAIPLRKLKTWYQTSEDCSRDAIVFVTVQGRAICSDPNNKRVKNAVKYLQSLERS
# CCL4_HUMAN = target: T17, CCL4_HUMAN (human, UniProt P13236 24-92); assay: BLI
# T17 chain: T13 chain with G47S
# CCL3_HUMAN = target: T18, CCL3_HUMAN (human, UniProt P10147 24-92); assay: BLI
# T18 chain: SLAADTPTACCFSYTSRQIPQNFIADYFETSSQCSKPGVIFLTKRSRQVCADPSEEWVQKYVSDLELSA
# CCL13_HUMAN = CCL13_HUMAN (human, UniProt Q99616 24-98); assay: BLI
# Chain of CCL13_HUMAN (Q99616 24-98): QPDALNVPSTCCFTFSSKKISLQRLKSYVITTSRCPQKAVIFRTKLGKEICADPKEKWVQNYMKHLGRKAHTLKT
# CCL2_HUMAN = CCL2_HUMAN (human, UniProt P13500 24-99); assay: BLI
# Chain of CCL2_HUMAN (P13500 24-99): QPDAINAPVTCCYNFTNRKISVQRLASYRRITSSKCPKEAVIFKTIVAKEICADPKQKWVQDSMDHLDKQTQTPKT
# CCL11_HUMAN = CCL11_HUMAN (human, UniProt P51671 24-97); assay: BLI
# Chain of CCL11_HUMAN (P51671 24-97): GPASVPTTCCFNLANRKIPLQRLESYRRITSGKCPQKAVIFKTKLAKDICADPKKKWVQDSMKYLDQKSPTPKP
# CCL18_HUMAN = target: T19, CCL18_HUMAN (human, UniProt P55774 21-89); assay: BLI
# T19 chain: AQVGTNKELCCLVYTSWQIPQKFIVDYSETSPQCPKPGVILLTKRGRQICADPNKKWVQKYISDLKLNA
# CCL1_HUMAN = target: T20, CCL1_HUMAN (human, UniProt P22362 24-96); assay: BLI
# T20 chain: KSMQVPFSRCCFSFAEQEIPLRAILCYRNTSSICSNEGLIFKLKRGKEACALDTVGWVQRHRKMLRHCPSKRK
binder,measurement,setting,value
B1,Kd,CXCL3_HUMAN [1],70.4 nM
same,Kd,CXCL3_HUMAN [2],70.4 nM
same,Kd,CXCL8_HUMAN [3],2.9 nM
same,Kd,CXCL1_HUMAN [4],5.8 nM
same,Kd,CXCL5 [5],29.8 nM
same,Kd,CXCL6 [6],62.7 nM
same,Kd,CXCL2 [7],50.6 nM
same,Kd,CXCL6_HUMAN,117 nM
same,Kd,CXCL5_HUMAN,71.9 nM
same,Kd,CXCL2_HUMAN,17 nM
same,Kd,CXCL8_HUMAN [8],4.84 nM
same,Kd,CXCL1_HUMAN [9],6.53 nM
B2,Kd,CXCL5 [10],39.9 nM
same,Kd,CXCL2 [11],30.3 nM
same,Kd,CXCL6 [12],62.7 nM
B3,Kd,CCL8_HUMAN,15.9 nM
same,Kd,CCL24_HUMAN,5.42 nM
same,Kd,CCL3L1_HUMAN,2.99 nM
same,Kd,CCL7_HUMAN,0.241 nM
same,Kd,CCL14_HUMAN,0.711 nM
same,Kd,CCL19_HUMAN,12 nM
same,Kd,CCL21_HUMAN,26.1 nM
same,Kd,CCL16_HUMAN,0.536 nM
same,Kd,CCL23_HUMAN,5.87 nM
same,Kd,CCL5_HUMAN,0.869 nM
same,Kd,CCL4L1_HUMAN,1.34 nM
same,Kd,CCL22_HUMAN,3.01 nM
same,Kd,CCL15_HUMAN,109 nM
same,Kd,CCL20_HUMAN,15.4 nM
same,Kd,CCL17_HUMAN,7.37 nM
same,Kd,CCL4_HUMAN,3.68 nM
same,Kd,CCL3_HUMAN,2.24 nM
same,Kd,CCL13_HUMAN,0.191 nM
same,Kd,CCL2_HUMAN,24.7 nM
same,Kd,CCL11_HUMAN,1.9 nM
same,Kd,CCL18_HUMAN,0.252 nM
same,Kd,CCL1_HUMAN,8.6 nM
